# Measured values: the supplement of paper PMC10724198
# ± gives the standard deviation of the averaged measurements.
# System: Saccharomyces cerevisiae
# Assay: protein stability index of tFT-peptide fusion (C-terminal peptide) (PSI (0-1 scale)); higher = more stable (slower turnover)
# Details: genetic background: wild type; temperature: 30 C
# Method: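 Multiplexed protein stability (MPS) profiling in S. cerevisiae. Random 12-aa peptides (tFT-X12 library) are fused to the C-terminus of a sfGFP-mCherry tandem fluorescent timer, after mCherry and a GGGS linker. Cells are FACS-sorted into 8 mCherry/sfGFP bins and deep-sequenced. The protein stability index (PSI) is the read-weighted bin average, scaled from 0 (unstable) to 1 (stable). Only peptides with >10 reads are reported; cells were grown at 30 °C in SC-His with glucose.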
# 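Also: PSI is a weighted mean of sequencing reads over stability bins, variants kept only with over 10 reads, mCherry proximal and sfGFP distal, peptide attached via GGGS linker.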
row,Sequence,protein stability index
1,ENVINGLITIKK,0.742 ± 0.039
2,EPDCLVSSSVGI,0.686 ± 0.049
3,EPDQERKSIQGM,0.7 ± 0.013
4,EPPRSPRSLPPL,0.661 ± 0.0073
5,EPTLLVRMVANR,0.529 ± 0.026
6,EQGIRHVRAIVV,0.539 ± 0.012
7,EQRNLELSGHIC,0.725 ± 0.12
8,ERCVCLRGVSSG,0.708 ± 0.011
9,EREGVREGEGRV,0.654 ± 0.02
10,ERGGWGGGSEVG,0.684 ± 0.091
11,ERIKQGKKKRGT,0.778 ± 0.12
12,ERKGIIIGHSHS,0.71 ± 0.037
13,ERKKPKKKRMRY,0.706 ± 0.011
14,ERLHRRRRGECA,0.6743 ± 0.0061
15,ERPQTKPCQTPL,0.728 ± 0.038
16,ERWSHNKEDDRN,0.6577 ± 0.0048
17,ERYKKRGKTNKV,0.662 ± 0.0076
18,ESAGLAGLSRAA,0.668 ± 0.022
19,ESEKKHNKKRRV,0.654 ± 0.069
20,ESLRNGKKYNKL,0.7417 ± 0.0017
21,ESLSAVAAGRGM,0.689 ± 0.024
22,ETEQTSIRRIKQ,0.728 ± 0.012
23,ETKKGKKKKMTM,0.682 ± 0.0069
24,ETVIQRFLSGHI,0.699 ± 0.017
25,EVDSTLAPHGHP,0.866 ± 0.041

row,Sequence,protein stability index
1,EVEGFLFVFEVK,0.609 ± 0.015
2,EVFGLWQGCFVW,0.728 ± 0.058
3,EVGQLQPNGGWV,0.661 ± 0.033
4,EVNYKKRQNKKN,0.71 ± 0.0066
5,EVTRAGEDAGDG,0.643 ± 0.023
6,EVTSQGWRNGVD,0.742 ± 0.028
7,EVWQGRLKGVLG,0.691 ± 0.031
8,EWEEGREIGGRV,0.69633 ± 0.00068
9,EWGEEDRDGNGR,0.721 ± 0.053
10,EWPTESSLSSET,0.689 ± 0.081
11,EWTTEQRSVGPR,0.683 ± 0.02
12,EWVCRAGVQGGA,0.691 ± 0.017
13,EWVYSGDGMGVG,0.622 ± 0.03
14,EWYRNNFFFLDL,0.772 ± 0.02
15,EYLHPARITGVL,0.733 ± 0.11
16,EYRVRHSVDARS,0.6241 ± 0.0019
17,EYVDVDVQDCRG,0.692 ± 0.035
18,FAGLVSPASLHP,0.686 ± 0.026
19,FAISTSMVNLAM,0.681 ± 0.039
20,FAPSPVPPLAPF,0.682 ± 0.053
21,FASLVSPWFDLV,0.716 ± 0.13
22,FASLVVSYGAGY,0.6712 ± 0.0019
23,FASVVADVFQFP,0.772 ± 0.088
24,FCCGGEFAWCLG,0.695 ± 0.016
25,FCCRLSGFSILG,0.663 ± 0.033

row,Sequence,protein stability index
1,FCFFGRPCLSSV,0.714 ± 0.14
2,FCKTKVRDKATR,0.73 ± 0.035
3,FCLLPPFPFFRS,0.661 ± 0.022
4,FCLSPGYHSQLC,0.692 ± 0.023
5,FCTDFDTLCREC,0.647 ± 0.021
6,FCVFSFAAPGFP,0.6746 ± 0.00074
7,FCWRDIICAFFR,0.72 ± 0.019
8,FCWSFGVLLSFS,0.559 ± 0.0099
9,FDCTSCIPFRFL,0.679 ± 0.035
10,FDLLSVGRARSW,0.716 ± 0.036
11,FDSLFVSLSFAI,0.661 ± 0.03
12,FFAPPSSPSFSR,0.822 ± 0.063
13,FFDFCACICTFF,0.655 ± 0.045
14,FFGSFVFSLLFY,0.6025 ± 0.0047
15,FFLLPHPSRFFP,0.734 ± 0.025
16,FFLSDDALVYNH,0.788 ± 0.065
17,FFLWSLLGGLPC,0.661 ± 0.02
18,FFPLSALFARPS,0.676 ± 0.0073
19,FFPQLRPNSSTS,0.724 ± 0.042
20,FFRFLLPFLPPS,0.70866 ± 0.0006
21,FFSPPLPPAPLT,0.775 ± 0.057
22,FFSVCLVFGLPG,0.543 ± 0.013
23,FFTDACQRVMKG,0.633 ± 0.049
24,FFWFIASTNFSS,0.609 ± 0.015
25,FGAFCSWLLLHS,0.61 ± 0.026

row,Sequence,protein stability index
1,FGCDCFCPFCLR,0.706 ± 0.019
2,FGDTYICKPFWG,0.765 ± 0.033
3,FGESPWARVGGG,0.5749 ± 0.005
4,FGFSAVCFGNLC,0.6729 ± 0.0024
5,FGGSFEGRGRYY,0.737 ± 0.018
6,FGTVIEVVCGVM,0.5277 ± 0.0014
7,FGVGSITDEELD,0.735 ± 0.036
8,FGYEPVSLRAEF,0.675 ± 0.029
9,FILSPGHFHRVL,0.688 ± 0.076
10,FILTSLPSLCFP,0.696 ± 0.04
11,FILWSLIMGPYA,0.522 ± 0.019
12,FIPGGPSGFCFR,0.669 ± 0.075
13,FIVGIQTKPVKL,0.661 ± 0.11
14,FKFCLRSESSSE,0.66 ± 0.085
15,FKIFSGLVTLGG,0.7337 ± 0.0036
16,FKKTSRHTINRK,0.757 ± 0.023
17,FKNVTGWLFFCR,0.702 ± 0.064
18,FKTLIRKEQESE,0.754 ± 0.013
19,FLCLLPLRLFGI,0.603 ± 0.021
20,FLDFLFLLVPSV,0.554 ± 0.019
21,FLDTSSYFMFAS,0.7123 ± 0.007
22,FLFCLLGSFRSF,0.5829 ± 0.004
23,FLGEKTCRSIIS,0.646 ± 0.083
24,FLGFGGAWSWGG,0.766 ± 0.16
25,FLHVSLSFSCSL,0.541 ± 0.0063

row,Sequence,protein stability index
1,FLLPQLFVSSSF,0.699 ± 0.035
2,FLLSVVQGAVHQ,0.6 ± 0.036
3,FLLVPSPPSFTH,0.715 ± 0.12
4,FLPCPPSPPSPR,0.765 ± 0.06
5,FLPQCLGSNFHL,0.725 ± 0.016
6,FLRLVRIPNQVQ,0.6531 ± 0.0014
7,FLSRPIGAAIWA,0.543 ± 0.026
8,FLSYPFLSRPFL,0.804 ± 0.058
9,FLTSTLVSSGGD,0.676 ± 0.034
10,FLTVDGKLMRGP,0.699 ± 0.021
11,FLVCFPFALFGA,0.495 ± 0.052
12,FLYELGTTSSPR,0.73 ± 0.025
13,FLYPPAHPLLPP,0.7 ± 0.024
14,FMPRPSNRLSPS,0.723 ± 0.0078
15,FNGAISESGLPT,0.664 ± 0.053
16,FNIPYLVQATGD,0.676 ± 0.09
17,FNTCCQNTWKVK,0.677 ± 0.15
18,FPAPPPPPRPAS,0.69 ± 0.033
19,FPFCAFPPSPTC,0.75 ± 0.038
20,FPFLAPSLVLPT,0.569 ± 0.012
21,FPFPTLSDLRPT,0.698 ± 0.036
22,FPGLHVNHPAWP,0.688 ± 0.027
23,FPHPPPSLPSPR,0.789 ± 0.064
24,FPHSPPFRLPLS,0.759 ± 0.089
25,FPLHPLLTSISL,0.68 ± 0.032

row,Sequence,protein stability index
1,FPLHSSLSGPPC,0.737 ± 0.0083
2,FPLLGRCCRAVQ,0.682 ± 0.043
3,FPLPHVIPSPAS,0.559 ± 0.022
4,FPLPLPVLSSPS,0.646 ± 0.15
5,FPLSFLLDLLLV,0.509 ± 0.013
6,FPLTKASSPSLL,0.672 ± 0.073
7,FPLVPPPSSPLF,0.687 ± 0.022
8,FPPAHPPPCLPP,0.6473 ± 0.003
9,FPPPLPLLSPLP,0.671 ± 0.079
10,FPPPPPPPPPSP,0.723 ± 0.028
11,FPPPPPVPPPLS,0.723 ± 0.047
12,FPPPPRPSSPLL,0.693 ± 0.024
13,FPPPPYPEFYPC,0.798 ± 0.077
14,FPPSDPAPTLPP,0.749 ± 0.088
15,FPRFGRGVGRRT,0.67 ± 0.0073
16,FPRPSLPFPPHR,0.609 ± 0.00064
17,FPRRLLPLSPPP,0.704 ± 0.015
18,FPRRPSPGPLIS,0.678 ± 0.035
19,FPSCVLGGWYCG,0.7114 ± 0.0016
20,FPSPSLSSLPPL,0.725 ± 0.058
21,FQCLPHGFYFGA,0.661 ± 0.0098
22,FQFSFLRFGGCA,0.651 ± 0.048
23,FQLFLPPFRLPP,0.801 ± 0.18
24,FQSSSKSRPRPA,0.669 ± 0.057
25,FQWAPGIDTVYC,0.705 ± 0.058

row,Sequence,protein stability index
1,FRAYCLPCNYHR,0.68 ± 0.052
2,FRCQHVRVSASF,0.799 ± 0.028
3,FRDEVLGSGVGS,0.65 ± 0.017
4,FRELIRPSKENR,0.664 ± 0.025
5,FRFSELPTGFGQ,0.664 ± 0.058
6,FRGTLRFYRPVN,0.696 ± 0.016
7,FRGTVYRGTRPR,0.622 ± 0.072
8,FRKALRIQSVGS,0.6926 ± 0.0019
9,FRLAPPSVYDFV,0.7008 ± 0.002
10,FRLDRYLGGKIG,0.641 ± 0.063
11,FRNESLVAGKSG,0.717 ± 0.076
12,FRPPPTLLLRPH,0.676 ± 0.026
13,FRRHRHDVLTVR,0.599 ± 0.05
14,FRRRYGCLLRGE,0.6573 ± 0.004
15,FRSRFGPCLRSV,0.649 ± 0.027
16,FRTPASLSLPLS,0.676 ± 0.021
17,FSARCGGGLDWS,0.722 ± 0.038
18,FSASMSTIWQTG,0.602 ± 0.034
19,FSCKRMISKTGF,0.669 ± 0.035
20,FSFCRLPDSPSS,0.698 ± 0.026
21,FSFQTLPTPTSP,0.655 ± 0.06
22,FSGCVEIYWHWL,0.662 ± 0.011
23,FSGLNWLLCHSK,0.704 ± 0.015
24,FSGWVFAPFFFF,0.644 ± 0.048
25,FSHPCPLSGLYP,0.716 ± 0.015

row,Sequence,protein stability index
1,FSHPLLRARRTW,0.656 ± 0.086
2,FSLGPSPLRPHA,0.611 ± 0.086
3,FSLLSSSSFFVL,0.591 ± 0.01
4,FSLPPNPQPKLL,0.741 ± 0.07
5,FSLSRLCFCFRS,0.529 ± 0.024
6,FSNFVYFFFRSS,0.666 ± 0.12
7,FSPPLGRFLLRH,0.707 ± 0.062
8,FSPSFGSLLVIC,0.556 ± 0.02
9,FSPVSAPPTRVS,0.703 ± 0.042
10,FSRLLCPPSFSF,0.658 ± 0.0072
11,FSRVRNVLGLGG,0.73 ± 0.12
12,FSSAINSFAFQP,0.683 ± 0.026
13,FSSHGFSSFLLL,0.691 ± 0.084
14,FSSSMCLGMRLR,0.639 ± 0.096
15,FSSSSLFFSRTL,0.677 ± 0.052
16,FSVFFDFIIARF,0.632 ± 0.067
17,FSVFSCLVCSLD,0.575 ± 0.011
18,FSVWCDLFGFFC,0.674 ± 0.075
19,FTLRILSRPVIP,0.656 ± 0.046
20,FTQVIQQQRRVV,0.627 ± 0.067
21,FTSGESVCGGRV,0.698 ± 0.0026
